In series [1] the test system is Caco-2 polarized monolayer. The experiment in a line: Caco-2 permeability assay, bidirectional transport. The series is classed as in vitro ADME, human. The following applies: Caco-2 polarized monolayer (21 days, TEER > 400 Ω cm^2), 5 µM FITC-labeled NaD1, HBSS transfer buffer pH 7.4, 90 min. As for the experimental part: Caco-2 (ATCC HTB-37) cells were thawed and cultured in complete DMEM/F-12 culture medium (Corning), supplemented with 10% FBS in a humidified CO2-intubator. After the culture was subcultivated three times, the cells were seeded on cell inserts (PET, 0.4 μm, 0.6 cm^2 surface area, SPL Life Sciences, Pocheon-si, Republic of Korea) at a density of 2.5 × 10^5 cells/cm^2. Cells were grown for 21 days with re-feeding with the fresh medium every 2–3 days. To evaluate integrity of Caco-2 monolayer, a transepithelial electrical resistance (TEER) was measured by Millicell ERS-2 Voltohmmeter (Merck-Millipore, Burlington, MA, USA). Only inserts with TEER > 400 Ω cm^2 were used in the transport assay.
The permeability assay was conducted in transfer buffer (HBSS solution, containing 1 mM CaCl2, 1 mM MgCl2, 10 mM D(+)glucose, pH 7.4). […]
The apparent permeability coefficients (Papp) were calculated for each insert according to the following equation: Papp = dQ/dt × (1/(A × C0)), where dQ/dt is an amount of product present in the basolateral or apical chamber as a function of time (nM/s), A is an area of the insert (in cm^2) and C0 is an initial concentration of NaD1 in the apical or basolateral chamber (nM/mL). […]
(In general: Caco-2 monolayers are a common model of the intestinal barrier.)

Series [2] has as its system umbilical vein endothelial cells (HUVEC). Further details: method as in PMID 28179997. The following applies: read-out: IC50, MTT cell viability assay; cited from earlier work.
Series [3] has as its system human dermal fibroblast cells (AHDF). Further details: method as in PMID 28179997. The following applies: read-out: IC50, MTT cell viability assay; cited from earlier work. Background: Formazan colour is commonly taken as a measure of viable cells.
Series [4] has as its system Caco-2 cells in a monolayer. The experiment in a line: Cytotoxicity assay, resazurin method, Caco-2 cells in a monolayer. The series is classed as cell-based, human. The following applies: 24 h; for Cell viability: Caco-2 monolayer. As for the experimental part: The cytotoxic effects of the tobacco defensin NaD1 towards PBMCs or Caco-2 cells were investigated in 96-well plates using the resazurin method as previously described. In brief, 4 × 10^5 per well Caco-2 cells not in a monolayer as well as Caco-2 cells in a monolayer in DMEM/F12 (1:1) medium with 10% FBS or 2 × 10^6 PBMCs per well in RPMI-1640 also with 10% FBS were incubated with serial dilutions of NaD1 at final concentrations from 0.39 to 50 μM or from 2.1 to 180 μM for 24 h. After that, resazurin (Sigma, St. Louis, MO, USA) was added at a final concentration of 70 µM and the plates were incubated overnight (16–18 h). Untreated cells and cells treated by non-ionogenic detergent Triton X-100 were used as negative and positive controls, respectively. […] The cell viability was estimated by resorufin fluorescence registered at […] via the following equation: cell viability (%) = (Fsample/Fcontrol) × 100%. Experiment was carried out twice in duplicate.

Ends that are not written are not given here.

For the substance “NaD1: Recombinant tobacco floral defensin NaD1 (UNIPROT Q8GTM0), obtained by heterologous expression in E. coli; FITC-labeled in the permeability assay (RECKTESNTFPGICITKPPCRKACISEKFTDGHCSKILRRCLCTKPC; cysteine pairing not given here; also: FITC label; UniProt Q8GTM0 26-72, looked up)”, in series [1] (apical to basolateral, mean of 6 independent inserts), the “Apparent permeability coefficient Papp, A→B (absorptive)” value is 2.72 ×10⁻⁶ cm/s. In series [1] (basolateral to apical, mean of 4 independent inserts), the “Apparent permeability coefficient Papp, B→A (secretory)” value was 2.22 ×10⁻⁶ cm/s. Besides, the concentration for half-maximal inhibition (IC50) in series [2] and in series [3] was around 10 µM in each case. For the same substance, the Cell viability entry in series [4] (peptide 25 µM) was “approximately 85%”; in series [4] (peptide 50 µM) it was around 70%. Moreover, the “Cytotoxic effect on Caco-2 cells in a monolayer” value in series [4] (peptide 12.5 µM) is given as “no effects”.

What is called IC50 is the concentration at which inhibition is half-maximal.

Source of the values: article PMC11591356, “Immunomodulatory Effects of the Tobacco Defensin NaD1” (Antibiotics, 2024).
